Results taken from PMC3625974 (Structure (London, England : 1993), 2012).

Legend:
TorS (Escherichia coli) = TorS (Escherichia coli) (UniProt P39453); settings: cited from earlier work
TorT (vpTorT) = TorT (vpTorT) (Vibrio parahaemolyticus, UniProt Q87ID2); assay: ITC; format: binding
[1] = biological target: isolated vpTorSS sensor domain, GSGS-TorS(51-323) (V. parahaemolyticus); assay: AUC
[2] = biological target: vpTorSS-TorSS dimer: two copies of vpTorSS (51-323) fused via a flexible linker [LN(SG)10A3] (V. parahaemolyticus); assay: AUC
[3] = biological target: isolated vpTorSS sensor domain, GSGS-TorS(51-323) (V. parahaemolyticus); assay: native gel or EMSA + SEC

TorT, sequence (P38683 19-342): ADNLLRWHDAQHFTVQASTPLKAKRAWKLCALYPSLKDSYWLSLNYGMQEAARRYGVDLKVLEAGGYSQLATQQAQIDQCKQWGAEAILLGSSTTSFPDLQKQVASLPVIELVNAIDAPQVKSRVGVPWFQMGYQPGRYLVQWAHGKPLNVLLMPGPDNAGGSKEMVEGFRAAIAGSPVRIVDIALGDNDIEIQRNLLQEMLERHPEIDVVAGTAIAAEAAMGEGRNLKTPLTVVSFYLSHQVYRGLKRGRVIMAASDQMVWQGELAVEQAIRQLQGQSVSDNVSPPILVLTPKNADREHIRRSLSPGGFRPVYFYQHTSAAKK

Compound: TorT (from UniProt P38683)
- Kd (TorS (Escherichia coli)): 10 nM

Compound: C[N+](C)(C)[O-] [TMAO, trimethylamine-N-oxide]
- Kd (TorT (vpTorT)): 1360 nM

Compound: periplasmic binding protein TorT from V. parahaemolyticus, GSGS-TorT(29-329) (natural protein)
- stoichiometry N (TorT per TorSS (2:2)) [1]: 1
- Kd [2]: 1790 nM
- stoichiometry N (TorT per TorSS (2:2)) [3]: 1
